T1: GST-hnRNP H (GST-H) (UniProt P31943 1-449)
T1 sequence: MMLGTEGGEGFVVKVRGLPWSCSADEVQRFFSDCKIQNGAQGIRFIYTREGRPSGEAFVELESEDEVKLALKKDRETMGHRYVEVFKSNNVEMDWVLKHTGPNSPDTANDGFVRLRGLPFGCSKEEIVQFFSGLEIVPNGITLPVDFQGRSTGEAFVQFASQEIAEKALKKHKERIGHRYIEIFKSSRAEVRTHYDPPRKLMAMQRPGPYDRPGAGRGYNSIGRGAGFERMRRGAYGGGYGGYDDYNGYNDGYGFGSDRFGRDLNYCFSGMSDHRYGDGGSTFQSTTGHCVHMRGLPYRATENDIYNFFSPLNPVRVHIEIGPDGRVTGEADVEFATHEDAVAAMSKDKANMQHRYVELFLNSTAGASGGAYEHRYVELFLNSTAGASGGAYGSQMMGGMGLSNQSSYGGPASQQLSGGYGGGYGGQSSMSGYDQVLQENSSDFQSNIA


Assays:
GST-hnRNP H (GST-H) = biological target: T1, GST-hnRNP H (GST-H); assay: EMSA; 100-400 ng GST-H; Crosslinking: 1x Roeder D buffer, 1 mM ATP, 1.7 mM MgCl2, 0.1 uM heparin, 30 min 30 C; EMSA: 1 pmol 32P-RNA, native 6-8% PAGE, buffer details not in material; conditions: protein: recombinant; tags: GST; label: 32P
GST-FUS (FUS/TLS) = GST-FUS (FUS/TLS) (UniProt P35637 1-526); assay: EMSA; GST-FUS; Crosslinking: 1x Roeder D buffer, 1 mM ATP, 1.7 mM MgCl2, 0.1 uM heparin, 30 min 30 C; EMSA: 1 pmol 32P-RNA, native 6-8% PAGE, buffer details not in material; conditions: protein: recombinant; tags: GST; label: 32P
GST-FUS (FUS/TLS), sequence (P35637 whole entry): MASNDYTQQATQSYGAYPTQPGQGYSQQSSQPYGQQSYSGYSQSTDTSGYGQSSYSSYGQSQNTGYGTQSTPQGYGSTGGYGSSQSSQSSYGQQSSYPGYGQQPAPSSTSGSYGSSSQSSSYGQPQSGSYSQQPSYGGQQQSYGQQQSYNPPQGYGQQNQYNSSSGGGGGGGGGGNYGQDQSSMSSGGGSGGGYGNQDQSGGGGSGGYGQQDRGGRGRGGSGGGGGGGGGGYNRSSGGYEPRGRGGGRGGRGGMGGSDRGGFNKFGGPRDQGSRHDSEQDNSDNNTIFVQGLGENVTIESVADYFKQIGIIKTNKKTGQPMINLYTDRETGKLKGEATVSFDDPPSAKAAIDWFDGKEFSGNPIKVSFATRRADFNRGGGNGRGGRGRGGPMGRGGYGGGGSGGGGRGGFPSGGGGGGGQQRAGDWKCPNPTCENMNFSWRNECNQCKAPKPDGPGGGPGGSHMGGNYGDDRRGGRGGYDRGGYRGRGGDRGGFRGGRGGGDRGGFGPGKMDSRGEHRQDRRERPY

Row | Binder | binding result (GST-hnRNP H (GST-H)) | binding result (GST-FUS (FUS/TLS))
1 | GGGACGCCGGGGUCUGGGCUCACGCCC (ssRNA) [ΔrasISS1] | no binding | –
2 | GGGACGGCAGGGCGUGAGGGAGGCGAGGGCCGGGGUCUGGGCUCACGCCC (ssRNA) [rasISS1] | binds | no binding

Source: article PMC2491553, “P68 RNA Helicase (DDX5) Alters Activity of Cis- and Trans-Acting Factors of the Alternative Splicing of H-Ras”
